Here are results for 15 molecules from US20240123070A1 (published 2024).

This test addresses T1, KRAS G13D (G13D-RT6) peptide on HLA-DQA1*05:01 / HLA-DQB1*03:01 (human).
T1 peptide: YKLVVVGAGDVGKSAL
Description: NFAT-luciferase; Jurkat-NFAT-Luc with the TCR and Lovo-DPA0301:DPB0501 cells loaded with G13D-RT6; against wild-type B8.2.4 TCR; full-length, on cells. The procedure: The TCR mutant (having a mutation present in CDR3 region) lentiviral vector was transduced into Jurkat-NFAT-Luc cell line, […] (G13D-RT6, SEQ ID NO: 20) were used as antigen-presenting cells (referred to as APCs), 2×10⁴ of the TCR-T and 2×10⁴ of the antigen-loaded APCs were co-cultured for 16-24 hours, added with ONE Glo Luciferase to detect the fluorescent signal expression, then TCR Mut RLU/WT RLU (ratio of RLU signal value of TCR mutant to RLU signal value of wild-type B8.2.4TCR) was calculated, and the results were shown in Table 9.

B1: B8.2.4 TCR mutant α97R-A (TCR, V domains shown)
Valpha: AQKITQTQPGMFVQEKEAVTLDCTYDTSDPSYGLFWYKQPSSGEMIFLIYQGSYDQQNATEGRYSLNFQKARKSANLVISASQLGDSAMYFCAMREATGTASKLTFGTGTRLQVTL
Vbeta: DVKVTQSSRYLVKRTGEKVFLECVQDMDHENMFWYRQDPGLGLRLIYFSYDVKMKEKGDIPEGYSVSREKKERFSLILESASTNQTSMYLCASSQTVPPQHFGDGTRLSIL
Regarding B1, the “TCR Mut RLU/WT RLU” value came out at 0.13 ratio.

B2: B8.2.4 TCR mutant α97R-Q (TCR, V domains shown)
Valpha: AQKITQTQPGMFVQEKEAVTLDCTYDTSDPSYGLFWYKQPSSGEMIFLIYQGSYDQQNATEGRYSLNFQKARKSANLVISASQLGDSAMYFCAMREQTGTASKLTFGTGTRLQVTL
Vbeta: DVKVTQSSRYLVKRTGEKVFLECVQDMDHENMFWYRQDPGLGLRLIYFSYDVKMKEKGDIPEGYSVSREKKERFSLILESASTNQTSMYLCASSQTVPPQHFGDGTRLSIL
Take B2: the “TCR Mut RLU/WT RLU” value turned out to be 0.16 ratio.

B3: B8.2.4 TCR mutant α97R-K (TCR, V domains shown)
Valpha: AQKITQTQPGMFVQEKEAVTLDCTYDTSDPSYGLFWYKQPSSGEMIFLIYQGSYDQQNATEGRYSLNFQKARKSANLVISASQLGDSAMYFCAMREKTGTASKLTFGTGTRLQVTL
Vbeta: DVKVTQSSRYLVKRTGEKVFLECVQDMDHENMFWYRQDPGLGLRLIYFSYDVKMKEKGDIPEGYSVSREKKERFSLILESASTNQTSMYLCASSQTVPPQHFGDGTRLSIL
For B3, the “TCR Mut RLU/WT RLU” value was 0.24 ratio.

B4: B8.2.4 TCR mutant α97R-N (TCR, V domains shown)
Valpha: AQKITQTQPGMFVQEKEAVTLDCTYDTSDPSYGLFWYKQPSSGEMIFLIYQGSYDQQNATEGRYSLNFQKARKSANLVISASQLGDSAMYFCAMRENTGTASKLTFGTGTRLQVTL
Vbeta: DVKVTQSSRYLVKRTGEKVFLECVQDMDHENMFWYRQDPGLGLRLIYFSYDVKMKEKGDIPEGYSVSREKKERFSLILESASTNQTSMYLCASSQTVPPQHFGDGTRLSIL
As for B4, the “TCR Mut RLU/WT RLU” value came to 0.16 ratio.

B5: B8.2.4 TCR mutant α97R-S (TCR, V domains shown)
Valpha: AQKITQTQPGMFVQEKEAVTLDCTYDTSDPSYGLFWYKQPSSGEMIFLIYQGSYDQQNATEGRYSLNFQKARKSANLVISASQLGDSAMYFCAMRESTGTASKLTFGTGTRLQVTL
Vbeta: DVKVTQSSRYLVKRTGEKVFLECVQDMDHENMFWYRQDPGLGLRLIYFSYDVKMKEKGDIPEGYSVSREKKERFSLILESASTNQTSMYLCASSQTVPPQHFGDGTRLSIL
As to B5, the “TCR Mut RLU/WT RLU” value came to 0.22 ratio.

B6: B8.2.4 TCR mutant α97R-M (TCR, V domains shown)
Valpha: AQKITQTQPGMFVQEKEAVTLDCTYDTSDPSYGLFWYKQPSSGEMIFLIYQGSYDQQNATEGRYSLNFQKARKSANLVISASQLGDSAMYFCAMREMTGTASKLTFGTGTRLQVTL
Vbeta: DVKVTQSSRYLVKRTGEKVFLECVQDMDHENMFWYRQDPGLGLRLIYFSYDVKMKEKGDIPEGYSVSREKKERFSLILESASTNQTSMYLCASSQTVPPQHFGDGTRLSIL
On to B6, for which the “TCR Mut RLU/WT RLU” value amounted to 0.17 ratio.

B7: B8.2.4 TCR mutant α97R-I (TCR, V domains shown)
Valpha: AQKITQTQPGMFVQEKEAVTLDCTYDTSDPSYGLFWYKQPSSGEMIFLIYQGSYDQQNATEGRYSLNFQKARKSANLVISASQLGDSAMYFCAMREITGTASKLTFGTGTRLQVTL
Vbeta: DVKVTQSSRYLVKRTGEKVFLECVQDMDHENMFWYRQDPGLGLRLIYFSYDVKMKEKGDIPEGYSVSREKKERFSLILESASTNQTSMYLCASSQTVPPQHFGDGTRLSIL
As to B7, the “TCR Mut RLU/WT RLU” value was 0.16 ratio.

B8: B8.2.4 TCR mutant α97R-C (TCR, V domains shown)
Valpha: AQKITQTQPGMFVQEKEAVTLDCTYDTSDPSYGLFWYKQPSSGEMIFLIYQGSYDQQNATEGRYSLNFQKARKSANLVISASQLGDSAMYFCAMRECTGTASKLTFGTGTRLQVTL
Vbeta: DVKVTQSSRYLVKRTGEKVFLECVQDMDHENMFWYRQDPGLGLRLIYFSYDVKMKEKGDIPEGYSVSREKKERFSLILESASTNQTSMYLCASSQTVPPQHFGDGTRLSIL
Regarding B8, the “TCR Mut RLU/WT RLU” value turned out to be 0.27 ratio.

B9: B8.2.4 TCR mutant α97R-Y (TCR, V domains shown)
Valpha: AQKITQTQPGMFVQEKEAVTLDCTYDTSDPSYGLFWYKQPSSGEMIFLIYQGSYDQQNATEGRYSLNFQKARKSANLVISASQLGDSAMYFCAMREYTGTASKLTFGTGTRLQVTL
Vbeta: DVKVTQSSRYLVKRTGEKVFLECVQDMDHENMFWYRQDPGLGLRLIYFSYDVKMKEKGDIPEGYSVSREKKERFSLILESASTNQTSMYLCASSQTVPPQHFGDGTRLSIL
In the case of B9, the “TCR Mut RLU/WT RLU” value worked out at 0.16 ratio.

B10: B8.2.4 TCR mutant α97R-D (TCR, V domains shown)
Valpha: AQKITQTQPGMFVQEKEAVTLDCTYDTSDPSYGLFWYKQPSSGEMIFLIYQGSYDQQNATEGRYSLNFQKARKSANLVISASQLGDSAMYFCAMREDTGTASKLTFGTGTRLQVTL
Vbeta: DVKVTQSSRYLVKRTGEKVFLECVQDMDHENMFWYRQDPGLGLRLIYFSYDVKMKEKGDIPEGYSVSREKKERFSLILESASTNQTSMYLCASSQTVPPQHFGDGTRLSIL
With B10, the “TCR Mut RLU/WT RLU” value came out at 0.17 ratio.

B11: B8.2.4 TCR mutant α97R-H (TCR, V domains shown)
Valpha: AQKITQTQPGMFVQEKEAVTLDCTYDTSDPSYGLFWYKQPSSGEMIFLIYQGSYDQQNATEGRYSLNFQKARKSANLVISASQLGDSAMYFCAMREHTGTASKLTFGTGTRLQVTL
Vbeta: DVKVTQSSRYLVKRTGEKVFLECVQDMDHENMFWYRQDPGLGLRLIYFSYDVKMKEKGDIPEGYSVSREKKERFSLILESASTNQTSMYLCASSQTVPPQHFGDGTRLSIL
With B11, the “TCR Mut RLU/WT RLU” value came out at 0.13 ratio.

B12: B8.2.4 TCR mutant α97R-W (TCR, V domains shown)
Valpha: AQKITQTQPGMFVQEKEAVTLDCTYDTSDPSYGLFWYKQPSSGEMIFLIYQGSYDQQNATEGRYSLNFQKARKSANLVISASQLGDSAMYFCAMREWTGTASKLTFGTGTRLQVTL
Vbeta: DVKVTQSSRYLVKRTGEKVFLECVQDMDHENMFWYRQDPGLGLRLIYFSYDVKMKEKGDIPEGYSVSREKKERFSLILESASTNQTSMYLCASSQTVPPQHFGDGTRLSIL
Consider B12, for which the “TCR Mut RLU/WT RLU” value was determined as 0.18 ratio.

B13: B8.2.4 TCR mutant α97R-E (TCR, V domains shown)
Valpha: AQKITQTQPGMFVQEKEAVTLDCTYDTSDPSYGLFWYKQPSSGEMIFLIYQGSYDQQNATEGRYSLNFQKARKSANLVISASQLGDSAMYFCAMREETGTASKLTFGTGTRLQVTL
Vbeta: DVKVTQSSRYLVKRTGEKVFLECVQDMDHENMFWYRQDPGLGLRLIYFSYDVKMKEKGDIPEGYSVSREKKERFSLILESASTNQTSMYLCASSQTVPPQHFGDGTRLSIL
Turning to B13, the “TCR Mut RLU/WT RLU” value is 0.16 ratio.

B14: B8.2.4 TCR mutant α97R-V (TCR, V domains shown)
Valpha: AQKITQTQPGMFVQEKEAVTLDCTYDTSDPSYGLFWYKQPSSGEMIFLIYQGSYDQQNATEGRYSLNFQKARKSANLVISASQLGDSAMYFCAMREVTGTASKLTFGTGTRLQVTL
Vbeta: DVKVTQSSRYLVKRTGEKVFLECVQDMDHENMFWYRQDPGLGLRLIYFSYDVKMKEKGDIPEGYSVSREKKERFSLILESASTNQTSMYLCASSQTVPPQHFGDGTRLSIL
With B14, the “TCR Mut RLU/WT RLU” value came out at 0.16 ratio.

B15: B8.2.4 TCR mutant α97R-T (TCR, V domains shown)
Valpha: AQKITQTQPGMFVQEKEAVTLDCTYDTSDPSYGLFWYKQPSSGEMIFLIYQGSYDQQNATEGRYSLNFQKARKSANLVISASQLGDSAMYFCAMRETTGTASKLTFGTGTRLQVTL
Vbeta: DVKVTQSSRYLVKRTGEKVFLECVQDMDHENMFWYRQDPGLGLRLIYFSYDVKMKEKGDIPEGYSVSREKKERFSLILESASTNQTSMYLCASSQTVPPQHFGDGTRLSIL
On to B15, for which the “TCR Mut RLU/WT RLU” value was determined as 0.23 ratio.
